A word on the Kd: it is a measure of binding affinity in units of concentration. One may read the koff as a measure of how fast the partners let go of each other. A low value points to a long-lived complex. Broadly, the kon is a measure of how fast the partners come together. The low end stands for slower complex formation, the high end for faster complex formation.

Experimental findings from patent publication US20250353917A1 (SYSTIMMUNE, published 2025) are described below.

Experiment [1] addresses T1, EGFR on BxPC-3 cells (UniProt P00533 25-1210, limits assumed). Briefly: cell-based or functional assay.
Experiment [2] has as its target T1, EGFR on BxPC-3 cells. Briefly: cell-based or functional assay. This is another data set of the same source.
For experiment [3], the target named is T2, His-tagged human EGFR (human, UniProt P00533 25-645, limits assumed).
T2 construct: also called huEGFR
The experiment can be described thus: BLI (Octet), scFv-His coupled to AR2G sensors, His-tagged human EGFR in solution, 1:1 global fit. Background: In BLI a coated tip is dipped into the sample, and binding shifts an interference pattern.
Description: (§1) Fc-containing protein was captured to anti-human Fc (AHC) sensor tips by loading for 180 seconds at 10 μg/ml. Alternatively, His-tagged proteins were covalently coupled at 10 ug/ml to AR2G tips using manufacturer protocol. After a 60-second baseline step, a 180- to 300-second association phase with serial dilutions (0-200 nM; 1:2.5 dilution factor) or a single 100 nM concentration of purified human EGFR in assay buffer (phosphate-buffered saline containing 0.1% BSA, 0.05% Tween20) was performed, followed by a 300- to 600—second dissociation phase in assay buffer. Regeneration was achieved using 10 mM glycine, pH 1.5. Binding curves were globally fit to a 1:1 model to extract the dissociation constants, KD. Binding kinetics for each protein were assessed in duplicate, with tabulated values reported as average±standard deviation.

Experiment [4] addresses T2, His-tagged human EGFR. The experiment is described as above. This is another data set of the same source.
Description: as §1

Like-named read-outs stand apart in the source and are kept apart here.

B1: SI-68P17 (other)
heavy: DVVMTQSPSTLSASVGDRVTINCQASESISSWLAWYQQKPGKAPKLLIYEASKLASGVPSRFSGSGSGTEFTLTISSLQPDDFATYYCQGYFYFISRTYVNSFGGGTKVEIKGGGGSGGGGSGGGGSGGGGSEVQLVESGGGLVQPGGSLRLSCAASGFTISTNAMSWVRQAPGKGLEWIGVITGRDITYYASWAKGRFTISRDNSKNTLYLQMNSLRAEDTAVYYCARDGGSSAITSNNIWGQGTLVTVSSGGGGSGGGGSQVQLQQSGPGLVKPSETLSITCTVSGFSLTNYGVHWIRQAPGKGLEWLGVIWSGGNTDYNTPFTSRFTITKDNSKNQVYFKLRSVRADDTAIYYCARALTYYDYEFAYWGQGTLVTVSSASTKGPSVFPLAPSSKSTSGGTAALGCLVKDYFPEPVTVSWNSGALTSGVHTFPAVLQSSGLYSLSSVVTVPSSSLGTQTYICNVNHKPSNTKVDKRVEPKSCDKTHTCPPCPAPEAAGGPSVFLFPPKPKDTLMISRTPEVTCVVVDVSHEDPEVKFNWYVDGVEVHNAKTKPREEQYNSTYRVVSVLTVLHQDWLNGKEYKCAVSNKALPAPIEKTISKAKGQPREPQVYTLPPSRDELTKNQVSLSCAVKGFYPSDIAVEWESNGQPENNYKTTPPVLDSDGSFFLVSKLTVDKSRWQQGNVFSCSVMHEALHNHYTQKSLSLSPGGGGGSGGGGSDVVMTQSPSSVSASVGDRVTITCQASQNIRTYLSWYQQKPGKAPKLLIYAAANLASGVPSRFSGSGSGTDFTLTISDLEPGDAATYYCQSTYLGTDYVGGAFGGGTKLTVLGGGGSGGGGSGGGGSGGGGSEVQLVESGGGLVQPGGSLRLSCTASGFTISSYHMQWVRQAPGKGLEYIGTISSGGNVYYASSARGRFTISRPSSKNTVDLQMNSLRAEDTAVYYCARDSGYSDPMWGQGTLVTVSS
light: ENVLTQSPASLSASPGERVTITCSASSSVSYMHWYQQKPGQAPKLWIYDTSKLASGVPSRFSGSGSGNDHTLTISSMEPEDFATYYCFQGSVYPFTFGQGTKVTVLGGGGSGGGGSGGGGSGGGGSQVTLKESGPGLVQPGQTLSLTCAFSGFSLSTSGMGVGWIRQPPGKGLEWLAHIWWDDDKRYNPALKSRLTISKDTSKNQVYLQMNSLDAEDTAVYYCARMELWSYYFDYWGQGTLVTVSSGGGGSGGGGSEIVLTQSPSTLSVSPGERATFSCRASQSIGTNIHWYQQKPGKPPRLLIKYASESISGIPDRFSGSGSGTEFTLTISSVQSEDFAVYYCQQNNNWPTTFGPGTKLTVLRTVAAPSVFIFPPSDEQLKSGTASVVCLLNNFYPREAKVQWKVDNALQSGNSQESVTEQDSKDSTYSLSSTLTLSKADYEKHKVYACEVTHQGLSSPVTKSFNRGECGGDKTHTCPPCPAPEAAGGPSVFLFPPKPKDTLMISRTPEVTCVVVDVSHEDPEVKFNWYVDGVEVHNAKTKPREEQYNSTYRVVSVLTVLHQDWLNGKEYKCAVSNKALPAPIEKTISKAKGQPREPQVYTLPPSRDELTKNQVSLWCLVKGFYPSDIAVEWESNGQPENNYKTTPPVLDSDGSFFLYSKLTVDKSRWQQGNVFSCSVMHEALHNRFTQKSLSLSPGGGGGSGGGGSDIQMTQSPSTLSASVGDRVTITCQASQSISSHLNWYQQKPGKAPKLLIYKASTLASGVPSRFSGSGSGTEFTLTISSLQPDDFATYYCQQGYSWGNVDNVFGGGTKVTVLGGGGSGGGGSGGGGSGGGGSEVQLLESGGGLVQPGGSLSLSCAASGFSFSSGYDMCWVRQAPGKGLEWIACIAAGSAGITYDANWAKGRFTISRDNSKNTLYLQMNSLRAEDTAVYYCARSAFSFDYAMDLWGQGTLVTVSS
Take B1: the “TDCC EC50 (pM)” value in the experiment with EGFR on BxPC-3 cells [1] came to 0.322 pM.

B2: SI-68P13 (other)
heavy: EIVLTQSPSTLSVSPGERATFSCRASQSIGTNIHWYQQKPGKPPRLLIKYASESISGIPDRFSGSGSGTEFTLTISSVQSEDFAVYYCQQNNNWPTTFGPGTKLTVLGGGGSGGGGSGGGGSGGGGSQVQLQQSGPGLVKPSETLSITCTVSGFSLTNYGVHWIRQAPGKGLEWLGVIWSGGNTDYNTPFTSRFTITKDNSKNQVYFKLRSVRADDTAIYYCARALTYYDYEFAYWGQGTLVTVSSGGGGSGGGGSEVQLVESGGGLVQPGGSLRLSCAASGFTISTNAMSWVRQAPGKGLEWIGVITGRDITYYASWAKGRFTISRDNSKNTLYLQMNSLRAEDTAVYYCARDGGSSAITSNNIWGQGTLVTVSSASTKGPSVFPLAPSSKSTSGGTAALGCLVKDYFPEPVTVSWNSGALTSGVHTFPAVLQSSGLYSLSSVVTVPSSSLGTQTYICNVNHKPSNTKVDKRVEPKSCDKTHTCPPCPAPEAAGGPSVFLFPPKPKDTLMISRTPEVTCVVVDVSHEDPEVKFNWYVDGVEVHNAKTKPREEQYNSTYRVVSVLTVLHQDWLNGKEYKCAVSNKALPAPIEKTISKAKGQPREPQVYTLPPSRDELTKNQVSLSCAVKGFYPSDIAVEWESNGQPENNYKTTPPVLDSDGSFFLVSKLTVDKSRWQQGNVFSCSVMHEALHNHYTQKSLSLSPGGGGGSGGGGSDVVMTQSPSSVSASVGDRVTITCQASQNIRTYLSWYQQKPGKAPKLLIYAAANLASGVPSRFSGSGSGTDFTLTISDLEPGDAATYYCQSTYLGTDYVGGAFGGGTKLTVLGGGGSGGGGSGGGGSGGGGSEVQLVESGGGLVQPGGSLRLSCTASGFTISSYHMQWVRQAPGKGLEYIGTISSGGNVYYASSARGRFTISRPSSKNTVDLQMNSLRAEDTAVYYCARDSGYSDPMWGQGTLVTVSS
light: ENVLTQSPASLSASPGERVTITCSASSSVSYMHWYQQKPGQAPKLWIYDTSKLASGVPSRFSGSGSGNDHTLTISSMEPEDFATYYCFQGSVYPFTFGQGTKVTVLGGGGSGGGGSGGGGSGGGGSQVTLKESGPGLVQPGQTLSLTCAFSGFSLSTSGMGVGWIRQPPGKGLEWLAHIWWDDDKRYNPALKSRLTISKDTSKNQVYLQMNSLDAEDTAVYYCARMELWSYYFDYWGQGTLVTVSSGGGGSGGGGSDVVMTQSPSTLSASVGDRVTINCQASESISSWLAWYQQKPGKAPKLLIYEASKLASGVPSRFSGSGSGTEFTLTISSLQPDDFATYYCQGYFYFISRTYVNSFGGGTKVEIKRTVAAPSVFIFPPSDEQLKSGTASVVCLLNNFYPREAKVQWKVDNALQSGNSQESVTEQDSKDSTYSLSSTLTLSKADYEKHKVYACEVTHQGLSSPVTKSFNRGECGGDKTHTCPPCPAPEAAGGPSVFLFPPKPKDTLMISRTPEVTCVVVDVSHEDPEVKFNWYVDGVEVHNAKTKPREEQYNSTYRVVSVLTVLHQDWLNGKEYKCAVSNKALPAPIEKTISKAKGQPREPQVYTLPPSRDELTKNQVSLWCLVKGFYPSDIAVEWESNGQPENNYKTTPPVLDSDGSFFLYSKLTVDKSRWQQGNVFSCSVMHEALHNRFTQKSLSLSPGGGGGSGGGGSDIQMTQSPSTLSASVGDRVTITCQASQSISSHLNWYQQKPGKAPKLLIYKASTLASGVPSRFSGSGSGTEFTLTISSLQPDDFATYYCQQGYSWGNVDNVFGGGTKVTVLGGGGSGGGGSGGGGSGGGGSEVQLLESGGGLVQPGGSLSLSCAASGFSFSSGYDMCWVRQAPGKGLEWIACIAAGSAGITYDANWAKGRFTISRDNSKNTLYLQMNSLRAEDTAVYYCARSAFSFDYAMDLWGQGTLVTVSS
Consider B2, for which the “TDCC EC50 (pM)” value with EGFR on BxPC-3 cells [1] stood at 0.259 pM.

B3: SI-79X3 (bispecific antibody, human IgG1, kappa)
heavy 1: QVQLQQSGPGLVKPSETLSITCTVSGFSLTNYGVHWIRQAPGKGLEWLGVIWSGGNTDYNTPFTSRFTITKDNSKNQVYFKLRSVRADDTAIYYCARALTYYDYEFAYWGQGTLVTVSSASTKGPSVFPLAPSSKSTSGGTAALGCLVKDYFPEPVTVSWNSGALTSGVHTFPAVLQSSGLYSLSSVVTVPSSSLGTQTYICNVNHKPSNTKVDKRVEPKSCDKTHTCPPCPAPEAAGAPSVFLFPPKPKDTLMISRTPEVTCVVVDVSHEDPEVKFNWYVDGVEVHNAKTKPREEQYNSTYRVVSVLTVLHQDWLNGKEYKCAVSNKALPAPIEKTISKAKGQPREPQVYTLPPSRDELTKNQVSLTCLVKGFYPSDIAVEWESNGQPENNYKTTPPVLDSDGSFFLYSRLTVDKSRWQQGNVFSCSVMHEALHNHYTQKSLSLSPG
heavy 2: not shown
light 1: EIVLTQSPSTLSVSPGERATFSCRASQSIGTNIHWYQQKPGKPPRLLIKYASESISGIPDRFSGSGSGTEFTLTISSVQSEDFAVYYCQQNNNWPTTFGPGTKLTVLRTVAAPSVFIFPPSDEQLKSGTASVVCLLNNFYPREAKVQWKVDNALQSGNSQESVTEQDSKDSTYSLSSTLTLSKADYEKHKVYACEVTHQGLSSPVTKSFNRGEC
light 2: not shown
Consider B3, for which the “*EC50 (pM), TDCC, depletion of luciferized BxPC3 cells with activated T cells” value with EGFR on BxPC-3 cells [2] was 20.3 pM.

B4: SI-79R2 (scFv)
scFv: EIVMTQSPSTLSASVGDRVIITCRASQSIGTNIHWYQQKPGKAPKLLIYYASESISGIPSRFSGSGSGAEFTLTISSLQPDDFATYYCQQNNNWPTTFGQGTKLTVLGGGGSGGGGSGGGGSGGGGSEVQLVESGGGLVQPGGSLRLSCTVSGFSLTNYGVHWVRQAPGKGLEWVGVIWSGGNTDYNTPFTSRFTISRDTSKNTVYLQMNSLRAEDTAVYYCARALTYYDYEFAYWGQGTLVTVSSGSHHHHHH
notes: the entry holds the whole construct; also called H1 scFv-6His; humanized scFv
In the experiment with His-tagged human EGFR [3], B4 yielded a Kd of 12 nM, a koff of 0.0107 s⁻¹ and a kon of 894000 M⁻¹ s⁻¹. The molecule also had a Kd in the experiment with His-tagged human EGFR [4] of 12 nM.
